Data as given in the nanobody polyreactivity screen of Harvey et al. (2022).

Assay: yeast display, Sf9 membrane polyspecificity reagent, FACS + sequencing; frameworks hold sequencing errors
Summary of the method: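 In a synthetic yeast display library (Saccharomyces cerevisiae BJ5465), nanobody expression was induced with galactose for 36–48 hours. FACS gates were set low and high (top ~1%) using anti-HA fluorescence for expression and streptavidin fluorescence for binding of the Sf9 membrane reagent. Each polyreactivity label is drawn from the gate of origin.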

Row | Sequence | polyreactivity (PSR sort gate)
1 | QVQLVESGGGLVQAGGSLRLSCAASGRIFYQNALGWYRQAPGKERELVADITSGGSTYYADSVKGRFTISRDNAKNTVYLQMNSLKPEDTAVYDCNTPSGPGTVGSYRRKWYGYWGQGTQVTVSS | low polyreactivity
2 | QVQLVESGGGLVQAGGSLRLSCAASGRIFYQNVMGWYRQAPGKERELVAAITRRDVTTYADSVKGRFTISRDNAKNTVYLQMNSLKPEDTAVYYCNAVYYNWIGFDYWGQGTQVTVSS | low polyreactivity
3 | QVQLVESGGGLVQAGGSLRLSCAASGRIFYQYAMGWYRQAPGKEREMVAAISRRGASTYYADSVKGRFTISRDNAKNTVYLQMNSLKPEDTAVYYCAAEPRAYSHQYNYWGQGTQVTVSS | high polyreactivity
4 | QVQLVESGGGLVQAGGSLRLSCAASGRIFYRNAMGWYRQAAGKERELVAGITRGGSTNYADSVKGRFTISRDNAKNTDYLQMNSLKPEETAVYYCAKAIPAKFYSEAGYDYWGQGTQVTVSS | low polyreactivity
5 | QVQLVESGGGLVQAGGSLRLSCAASGRIFYRNAMGWYRQAPGKERELVAAIRGSGGRTYYADSVKGRFTISRDNAKNTVYLQMNSLKPEDTAVYYCAAYGYYVEHPRGLSGPYDDDYWGQGTQVTVSS | low polyreactivity
6 | QVQLVESGGGLVQAGGSLRLSCAASGRIFYRNAMGWYRQAPGKERELVAAISSSAGSTYYADSVKGRFTISRDNAKNTVYLQMNSLKPEDTAVYYCAAGSGTFVTRYRYGYWGQGTQVTVSS | high polyreactivity
7 | QVQLVESGGGLVQAGGSLRLSCAASGRIFYRNAMGWYRQAPGQERELVAAISKSGGSTYYADSVKGRFTISRDNAKNTVYLQMNSLKPEDTAVYYSAAGTRRTDGYSWGQGTQVTVAS | high polyreactivity
8 | QVQLVESGGGLVQAGGSLRLSCAASGRIFYRNTMGWYRQAPGKERELVAPITSSGASTYYADSVKGRFTISRDIAKNTVYLQMNSLKPEDTAVYFCGAQPYVEGTKRYYWGQGTQVTVSS | high polyreactivity
9 | QVQLVESGGGLVQAGGSLRLSCAASGRIFYRYAMGWYRQAPGKERELVAAIRYSGGRTYYADSVKGRFTISRDNAKNTVYLQMNSLKPEDTAVYYCAARGWYKSDYWGQGTQVTVSS | low polyreactivity
10 | QVQLVESGGGLVQAGGSLRLSCAASGRIFYRYAMGWYRQAPGKERELVAAITGSGGRTYADSVKGRFTISRDNAKNTVYLQMNSLKPEDTAVYYCNDRSFCPTESRYDYWGQGTQVTVSS | high polyreactivity
11 | QVQLVESGGGLVQAGGSLRLSCAASGRIFYRYAMGWYRQAPGKERELVAAITQSGGSTFYADSVKGRFTISRDNAKNTVYLQMNSLKPEDTAVYYCNRRGPGFYSTRFNYWGQGTQVTVSS | high polyreactivity
12 | QVQLVESGGGLVQAGGSLRLSCAASGRIFYRYAMGWYRQAPGKERELVADITWRGGRTYYADSVKGRFTISRDNAKNTVYLQMNSLKPEDTAVYYCAATGGFYYWGQGTQVTVSS | low polyreactivity
13 | QVQLVESGGGLVQAGGSLRLSCAASGRIFYRYAMGWYRQAPGKERELVARITSSGSTNYADSVKGRFTISRDNAKNTVYLQMNSLKPEDTAVYYCAARKLFIPKYYYWGQGTQVTVSS | high polyreactivity
14 | QVQLVESGGGLVQAGGSLRLSCAASGRIFYRYAMGWYRQAPGKERELVASITRSGITHYADSVKGRFTISRDNAKNTVYLQMNSLKPEDTAVYYCNARRGSPAPYDYWGQGTQVTVSS | high polyreactivity
15 | QVQLVESGGGLVQAGGSLRLSCAASGRIFYRYAMGWYRQAPGKERELVASITSGGSTTYYADSVKGRFTISRDNAKNTVYLQMNSLKPEDTAVYYCAARPRYRKEYDYWGQGTQVTVSS | high polyreactivity
16 | QVQLVESGGGLVQAGGSLRLSCAASGRIFYRYAMGWYRQAPGKERELVATITSGGRTKYADSVTGRFTIARDNAKNTVYLQMNSLKPEDTAVYYCNAYVYSGYSIRDYWGQGTQVTVSS | high polyreactivity
17 | QVQLVESGGGLVQAGGSLRLSCAASGRIFYRYARGWYRQAPGKERELVAAITRGGRTNYADSVKGRFTISRDNAQNTVYLQMNSLKPEDTAVYYCRPLWYGFDYWGQGTQVTVSS | high polyreactivity
18 | QVQLVESGGGLVQAGGSLRLSCAASGRIFYRYTMGWYRQAPGKERELVAVIRSGGRTYYADSVKGRFSISRDNAKNTLSLQMNSLKPEDTSVYYCATLVRVLTLRSDLNLYGYWGQGTQVTVSS | high polyreactivity
19 | QVQLVESGGGLVQAGGSLRLSCAASGRIFYRYVMGWYRQAPGKERELVAAITSSGGSTYYADSVKGRFTISRDNAKHTVYLQMISLQPEDTAVYYCAADRYTRYRYNYWGQGTQVTVSS | high polyreactivity
20 | QVQLVESGGGLVQAGGSLRLSCAASGRIFYSNAMGWYRPAPGKERELVAGITISGGSTYYADSVKGRFTISRDYAKNTVSLQMNSLKPEDTAVYYCNARYLRRGDYGGQGTQVTVSS | low polyreactivity
21 | QVQLVESGGGLVQAGGSLRLSCAASGRIFYSNAMGWYRQAPGKERELVAAITGSGGRTHYADSVKGRFTISRDNAKNTVYLQMNSLKPEDTAVYYCAKDGYFPEFDYWGQGTKVTVSS | high polyreactivity
22 | QVQLVESGGGLVQAGGSLRLSCAASGRIFYSNAMGWYRQAPGKERELVATISRGGSTYADSVKGRFTISRDNAKNTVYLQMNSLKPEDTAVYYCAAGLQGYPRKFNYWGQGTQVTVSS | low polyreactivity

Row | Sequence | polyreactivity (PSR sort gate)
23 | QVQLVESGGGLVQAGGSLRLSCAASGRIFYSNAMGWYRQAPGKERELVATITYYADSVKGRFTISRDNAKNTVYLQMNSLKPEDTSVYYCAAVYLYYSRSDLYDYWGQGTQVTVSS | low polyreactivity
24 | QVQLVESGGGLVQAGGSLRLSCAASGRIFYSNDLGWYRQAPGKERELVAAITSSGASTYYADSVKGRFTISRDNEKNTVYLQMNSLKPEDTAVYYCNVDIGVYAYESDYWGQGTQVTVSS | low polyreactivity
25 | QVQLVESGGGLVQAGGSLRLSCAASGRIFYSYAMGWYRQAPGKEREFVAAIRWSGGRTYYADSVKGRFTISRDNAKNTVYLQMNSLKPEDTAVYYCAAELYGNNFWDGTTGYDYWGQGTEVTVSS | low polyreactivity
26 | QVQLVESGGGLVQAGGSLRLSCAASGRIFYSYAMGWYRQAPGKERELVAAISRSGGRTYYADSVKGRFTISRDNAKNTVYLQMNSLKPEDTAVYYCNAYRPRFSTRVDYWGQGTQVTVSS | high polyreactivity
27 | QVQLVESGGGLVQAGGSLRLSCAASGRIFYTKTMGWYRQAPGNEWELVAAIRSGTRTDYADSVKGRFTISRDNAKKTVYLQMNSLKPYDTAVSYCNKAAGVTGRYYYWGQGTQVTVSS | low polyreactivity
28 | QVQLVESGGGLVQAGGSLRLSCAASGRIFYTNAMGWYRQAPGKERELVATISLRGGSTYYADSVKGRFTISRDNAKNTVYLQLNSLKPEDTAVYDCAARFWSVYSGNPTYPKYYWGQGTQVTVSS | high polyreactivity
29 | QVQLVESGGGLVQAGGSLRLSCAASGRIFYTNGMGWYRQAPGKERELVAAITYSGGNTFYADSVKGRFTISRDNSKNTVYLQMNSLKPEDTAVYYCAATFTYLGYWYDYRGQGTQVTVSS | low polyreactivity
30 | QVQLVESGGGLVQAGGSLRLSCAASGRIFYTYAMGRYRQAPGKERELVAVISSGGSTNYADSVKGRFTISRDTAKNNVYLQMNSLKPEDTAVYYCNADTGAADYFDFDYWGQGTQVTVSS | low polyreactivity
31 | QVQLVESGGGLVQAGGSLRLSCAASGRIFYTYVMGWYRQAPGKERELVAAINRSGGTTYYADSVKGRFTISRDNAKNTGYLPMNSLKPEDTAVYYCNATLPDYWPYYYYQGGDDYWGQGTQVTVSS | low polyreactivity
32 | QVQLVESGGGLVQAGGSLRLSCAASGRIFYVYAMGWYIKAPGKERELVAAITSSGGRTNYADSVKGRFTISRDNAKNTVYLQMNSLKPEDTAVYYCAAAYPWGDYGVSDYDYWGQGTQVTVSS | low polyreactivity
33 | QVQLVESGGGLVQAGGSLRLSCAASGRIFYVYAMGWYRQAPGKERELVAAINWRGGSTYYADSVKGRFPISRDNAKNTVYLQMNSLKPEDTAVYYCAARWYLYDYWGQGTQVTVSS | low polyreactivity
34 | QVQLVESGGGLVQAGGSLRLSCAASGRIFYVYTMGWYRQAPGKERELVAAISWSGGSTHYADSVKGRFTISRDNAKNTVYLQMNSLKPEDTAGYYCNKGVVSRVAFEYWGQGTQLTVSS | low polyreactivity
35 | QVQLVESGGGLVQAGGSLRLSCAASGRIFYWNVMGWYRQAPGKERELVAAISSSGASTSYADSEKGRFTISRDNEKNTVYLQMNSLKPEVTAGYYCDARTRRNYRQYNYWGQATQVTVSS | high polyreactivity
36 | QVQLVESGGGLVQAGGSLRLSCAASGRIFYWYAMGWYRQAPGKERELVAAISSAGTTYYADSVKGRFTISRDNAKNTVYLQMNSLKPEDTAVYYCAATLGFYRRSEYDYWGQGTQVTVSS | high polyreactivity
37 | QVQLVESGGGLVQAGGSLRLSCAASGRIFYWYAMGWYRQAPGKERELVATINSGGSTTYADSVKGRFTISRDNAKNTVYLQMNSLKPEDTAVYYCARQRTVKKYYYWGQGTQVTVSS | high polyreactivity
38 | QVQLVESGGGLVQAGGSLRLSCAASGRIFYWYTMGWYRQAPGKERELVASISGSGGSTYYADSVKGRFTISRDNAKNTVYLQMNSLKPEDTAVYYCNKGSRWLRGLDYWGQGTQVTVSS | high polyreactivity
39 | QVQLVESGGGLVQAGGSLRLSCAASGRIFYWYVMGWYIQAPGKERELVATIRYSGGNTYYADSVKGRFTISRDNAKNTVYLQMNSLKPEDTAVYYCAAGSLYWGRSPTRGGQGGYWGQGTQVTVSS | high polyreactivity
40 | QVQLVESGGGLVQAGGSLRLSCAASGRIFYYNAMGWYRPAPGKERELVAAITYIGGNTHYADSVKGRFTISRDNAKYTVYLQMNSLKPEDTAVYYCARGTVLGFYYEYGYWGQGTQVTVSS | low polyreactivity
41 | QVQLVESGGGLVQAGGSLRLSCAASGRIFYYNAMGWYRQAPGKERELVAAISYTSGRTYYADSVKGRFTISRDNAKNTVYLQMNSLKPEDTAVYYCAADYYLRKGMDYWGQVTQVTVSS | low polyreactivity
42 | QVQLVESGGGLVQAGGSLRLSCAASGRIFYYNAMGWYRQAPGKERELVAAITSGGSTNYADSVKGRFTISRDNAKNTVYLQMNSLNPEDTAVYYCAADYYYYVAGVHYDYWGQGTLVTVSS | low polyreactivity
43 | QVQLVESGGGLVQAGGSLRLSCAASGRIFYYNAMGWYRQAPRKERELVASITGSGGSTYYADSVKGRFTISRDNAKNTVYLQMNSLKPEDSAVYYCAKREYLYRYYYVAKYDYWGQGTQVSVSS | low polyreactivity
